Consider 1 substance from US20150064134A1.

The target in the test is MAPKAP-K2(h) (human) (UniProt P49137). Put plainly: cell-based or functional assay.

MMI-0100 (peptide) displayed an IC50 (radiometric kinase activity assay) of 22 µM.
